Data as given in US20110262448A1 (Bristol-Myers Squibb, published 2011).

Tests used:
[1] = molecular target: T1, cell-surface human mesothelin (naturally expressed on OVCAR3, NCI-H226, CFPAC-1 and KB cells and on human … (human, UniProt Q13421 296-598)); experiment: flow cytometry on KB cells
T1 construct: whole, on cells; Endogenously expressed on the cell lines; also called cell surface mesothelin
Procedure: (§1) To test the ability of the antibodies to bind to cell surface mesothelin protein, the antibodies were incubated with four different mesothelin-expressing cells: OVCAR3 (ATCC Designation HTB-161, a human ovarian cancer cell line), NCI-H226 (ATCC Designation CRL-5826, a human lung-derived mesothelioma), CFPAC-1 (ATCC Designation CRL-1918, a human pancreatic cancer cell line), and KB (ATCC Designation CCL-17, a human oral carcinoma cell line). For the flow cytometry studies, the 3C10, 6A4 and 7B1 monoclonal antibodies were diluted with cold 1×PBS+0.1% BSA to 40 μg/mL. For the binding reaction, 50 μl of diluted antibody solution was added to a 50 μl cell suspension containing 4×10⁵ cells and the mixture was incubated on ice for 30-60 minutes. The cells were then washed three times with 1×PBS+0.1% BSA. A 1:50 dilution of R-phycoerythrin-labeled goat anti-human IgG Fγ F(ab)₂ fragment (Jackson ImmunoResearch Labs, Cat. #109-116-098) was added and the mixture was incubated on ice for 1 hour, followed by washing twice with cold 1×PBS+0.1% BSA. After the final wash, 200 μl of cold 1×PBS+0.1% BSA was added to each solution and analysis of antibody binding was carried out by FACS.

[2] = molecular target: T1, cell-surface human mesothelin …; experiment: flow cytometry on OVCAR3 cells
Procedure: as §1

[3] = molecular target: T1, cell-surface human mesothelin …; experiment: flow cytometry on CFPAC-1 cells
Procedure: as §1

[4] = molecular target: T1, cell-surface human mesothelin …; experiment: flow cytometry on NCI-H226 cells
Procedure: as §1

[5] = molecular target: T2, hu mesothelin-his fusion protein (human, UniProt Q13421 296-598, limits assumed); experiment: BIAcore SPR, antibody captured on protein G chip, mesothelin His-fusion protein injected
T2 construct: domain: 40 kD portion of mesothelin; Soluble fusion protein secreted by transfected CHO cells; also called recombinant soluble mesothelin his-fusion protein; recombinant human mesothelin His-fusion protein; not shown: His tag at the C-terminus
T2 sequence (Q13421 other isoform, or with tags, fused parts or gaps limits assumed): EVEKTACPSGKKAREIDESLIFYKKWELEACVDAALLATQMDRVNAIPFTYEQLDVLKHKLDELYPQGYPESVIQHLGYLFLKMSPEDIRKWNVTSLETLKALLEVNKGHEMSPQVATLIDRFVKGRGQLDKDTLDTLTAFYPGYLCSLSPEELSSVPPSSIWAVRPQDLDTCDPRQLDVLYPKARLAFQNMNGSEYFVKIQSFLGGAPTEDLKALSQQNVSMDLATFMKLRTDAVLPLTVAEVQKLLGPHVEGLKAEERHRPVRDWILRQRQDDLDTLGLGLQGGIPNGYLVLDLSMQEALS
Procedure: The binding of the 3C10, 6A4 and 7B1 antibodies to recombinant soluble mesothelin his-fusion protein was examined by BIAcore™ using a capture method. The 3C10, 6A4 and 7B1 antibodies each were separately captured on a protein G (Pierce, Rockford, Ill.) coated CM5 chip at high density (4000 RUs). The coating was performed based on the standard immobilization procedure recommended by the manufacturer. After the 3C10, 6A4 or 7B1 purified antibody was captured on protein G, a concentration series of recombinant human mesothelin His-fusion protein (450, 225, 112.5, 56, and 28 nM) was injected over the captured antibody for 2 minutes at a flow rate of […]. The antigen was allowed to dissociate for 8 minutes. Isotype controls were run on the chip, and the data used to subtract non-specific binding. All the analyses were carried out on a Biacore 2000 or 3000 surface plasmon resonance instrument, using BIAcore Control software v 4.01. Data was analyzed using BiaEvaluation v4.01 software.

[6] = molecular target: mesothelin on CHO-mesothelin cells (CHO cells transfected to express the 40 kD membrane-associated portion of … (UniProt Q13421 296-598, limits assumed)); experiment: cell-based or functional assay
mesothelin on CHO-mesothelin cells (CHO cells transfected to express the 40 kD membrane-associated portion of …, sequence (Q13421 other isoform, or with tags, fused parts or gaps limits assumed): as above

T1 sequence (Q13421 other isoform, or with tags, fused parts or gaps limits assumed): as above

| EC50 [1] [nM] | EC50 [2] [nM] | EC50 [3] [nM] | EC50 [4] [nM] | Kd [5] [nM] | koff [5] [s⁻¹] | kon [5] [M⁻¹ s⁻¹] | Binder | Antibody Dependent Cellular Cytotoxicity, EC50 (nM), CHO-mesothelin target cells [6] [nM] |
| --- | --- | --- | --- | --- | --- | --- | --- | --- |
| 0.0679 | 0.11 | 0.0643 | 0.664 | 2.4 | 0.000171 | 71500 | human monoclonal antibody 7B1 (antibody, V domains shown, also called 7B1 mAb; 1382.210.7B1.2.18) VH: EVHLVESGGGLVQPGGSLRLSCAASGFTFSRYWMSWVRQAQGKGLEWVASIKQAGSEKTYVDSVKGRFTISRDNAKNSLSLQMNSLRAEDTAVYYCAREGAYYYDSASYYPYYYYYSMDVWGQGTTVTVSS VL: not shown |  |
| 0.144 | 0.213 | 0.193 | 0.197 | 5.8 | 0.000362 | 63000 | human monoclonal antibody 3C10 (antibody, IgG1, V domains shown, hybridoma-derived purified antibody; also called 3C10 mAb; 1382.210.3C10.1.6) VH: QVYLVESGGGVVQPGRSLRLSCAASGITFSIYGMHWVRQAPGKGLEWVAVIWYDGSHEYYADSVKGRFTISRDNSKNTLYLLMNSLRAEDTAVYYCARDGDYYDSGSPLDYWGQGTLVTVSS VL: EIVLTQSPATLSLSPGERATLSCRASQSVSSYLAWYQQKPGQAPRLLIYDASNRATGIPARFSGSGSGTDFTLTISSLEPEDFAVYYCQQRSNWPLTFGGGTKVEIK |  |
| 0.181 | 0.17 | 0.193 | 0.156 | 5.9 | 0.000377 | 63900 | human monoclonal antibody 6A4 (antibody, IgG1, V domains shown, also called 6A4 mAb; 1382.210.6A4.1.6) VH: QVHLVESGGGVVQPGRSLRLSCVASGITFRIYGMHWVRQAPGKGLEWVAVLWYDGSHEYYADSVKGRFTISRDNSKNTLYLQMNSLRAEDTAIYYCARDGDYYDSGSPLDYWGQGTLVTVSS VL: EIVLTQSPATLSLSPGERATLSCRASQSVSSYLAWYQQKPGQAPRLLIYDASNRATGIPARFSGSGSGTDFTLTISSLEPEDFAVYYCQQRSNWPLTFGGGTKVEIK | 63.1 |
